Positions count from the first letter of the chain named.
Legend:
Test in all cases: EMSA
Conditions in all cases: tags: MBP fusion
[1] = molecular target: ZFP SBS#1274 (synthetic)
Summary of the method: (§1)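 Purified ZFP was titrated against labeled double-stranded target (1 nM or lower, at least 10-fold below expected Kd) carrying the natural binding site with flanks. Binding buffer was 10 mM Tris pH 7.5, 100 mM KCl, 1 mM MgCl2, 0.1 mM ZnCl2, 5 mM DTT, 10% glycerol, 0.02% BSA, with equilibration for at least 45 min. Bound and free target were separated on a 10% polyacrylamide gel.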

[2] = molecular target: ZFP SBS#1275 (synthetic)
Summary of the method: as §1

[3] = molecular target: T1, ZFP SBS#1249 (synthetic)
T1 chain: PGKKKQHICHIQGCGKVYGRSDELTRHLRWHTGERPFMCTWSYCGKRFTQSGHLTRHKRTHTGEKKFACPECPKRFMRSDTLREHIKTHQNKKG
Summary of the method: as §1

[4] = molecular target: T2, ZFP SBS#1253 (synthetic)
T2 chain: T1 chain with S51R, G52A, T55E
Summary of the method: as §1

[5] = molecular target: T3, ZFP SBS#1266 (synthetic)
T3 chain: T1 chain with R20D, S21R, D22S, E23H, G52S, T55A, T81N
Summary of the method: as §1

[6] = molecular target: T4, ZFP SBS#1288 (synthetic)
T4 chain: T1 chain with R20D, S21R, D22S, E23H, G52S, T55A, T81N, R83T
Summary of the method: as §1

[7] = molecular target: ZFP SBS#490 (synthetic)
Summary of the method: as §1

[8] = molecular target: T5, ZFP SBS#1259 (synthetic)
T5 chain: T1 chain with E23S, T25L, Q50D, S51R, G52D, T81N, R83A, E84R
Summary of the method: as §1

[9] = molecular target: T6, ZFP SBS#1260 (synthetic)
T6 chain: T1 chain with S21L, E23S, T25L, Q50D, S51R, G52D, T81N, R83A, E84R
Summary of the method: as §1

[10] = molecular target: T7, ZFP SBS#1257 (synthetic, UniProt P08047)
T7 chain: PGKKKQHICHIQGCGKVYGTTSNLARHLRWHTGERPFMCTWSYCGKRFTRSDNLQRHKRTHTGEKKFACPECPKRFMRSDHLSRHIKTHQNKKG
Summary of the method: as §1

[11] = molecular target: T8, ZFP SBS#1258 (synthetic, UniProt P08047)
T8 chain: T7 chain with T20Q, T21S, A25R
Summary of the method: as §1

[12] = molecular target: T9, ZFP SBS#541 (synthetic, UniProt P08047)
T9 chain: T7 chain with A25R, D52S
Summary of the method: as §1

[13] = molecular target: T10, ZFP SBS#1247 (synthetic)
T10 chain: T1 chain with Q50T, H53A, T81A, R83T, E84R
Summary of the method: as §1

[14] = molecular target: T11, ZFP SBS#1246 (synthetic)
T11 chain: T1 chain with Q50T, H53S, T81A, R83T, E84R
Summary of the method: as §1

[15] = molecular target: T12, ZFP SBS#261 (synthetic)
T12 chain: T7 chain with T20E, T21R, S22G, N23T, N53A, Q55S, H81N
Summary of the method: as §1

[16] = molecular target: T13, ZFP SBS#1277 (synthetic)
T13 chain: T7 chain with T20R, T21S, S22D, N23H, Q55A, R78Q, D80G, H81N, S83T
Summary of the method: as §1

[17] = molecular target: T14, ZFP SBS#1020 (synthetic)
T14 chain: T1 chain with E23N, R26T, Q50R, G52D, H53N, R56K, R83K, E84Q
Summary of the method: as §1

[18] = molecular target: ZFP SBS#998 (synthetic)
Summary of the method: as §1

[19] = molecular target: T15, ZFP SBS#1255 (synthetic)
T15 chain: T1 chain with E23N, R26T, Q50R, G52D, H53N, R56K, R83K, E84Q
Summary of the method: as §1

[20] = molecular target: T16, ZFP SBS#1004 (synthetic)
T16 chain: T1 chain with E23N, R26T, Q50R, G52D, H53N, R56K, E84S
Summary of the method: as §1

[21] = molecular target: T17, ZFP SBS#1003 (synthetic)
T17 chain: T1 chain with D22A, E23N, T25R, R26T, Q50R, G52D, H53N, R56K, E84S
Summary of the method: as §1

[22] = molecular target: T18, ZFP SBS#1264 (synthetic)
T18 chain: T7 chain with N23A, A25T, S51A, N53A, Q55M, R56V, H81N, S83T, R84Q
Summary of the method: as §1

[23] = molecular target: T19, ZFP SBS#1265 (synthetic)
T19 chain: T7 chain with N23A, A25T, N53A, Q55T, R56T, H81N, S83T, R84Q
Summary of the method: as §1

[24] = molecular target: ZFP SBS#1237 (synthetic)
Summary of the method: as §1

[25] = molecular target: ZFP SBS#1250 (synthetic)
Summary of the method: as §1

[26] = molecular target: T20, ZFP SBS#1282 (synthetic)
T20 chain: T1 chain with R20E, S21R, D22G, E23D, Q50D, S51P, H53A, T55V, T81E, E84T
Summary of the method: as §1

[27] = molecular target: T21, ZFP SBS#1271 (synthetic)
T21 chain: T1 chain with E23A, T25R, R26E, H53S, T81A, R83T, E84R
Summary of the method: as §1

[28] = molecular target: ZFP SBS#1234 (synthetic)
Summary of the method: as §1

[29] = molecular target: T22, ZFP SBS#1278 (synthetic)
T22 chain: T7 chain with T20Q, T21S, S22G, N23S, A25T, Q55R, R56T, H81N, S83A
Summary of the method: as §1

[30] = molecular target: ZFP SBS#1236 (synthetic)
Summary of the method: as §1

[31] = molecular target: T23, ZFP SBS#1287 (synthetic)
T23 chain: T1 chain with R20Q, D22G, E23H, T25A, H53A, T55A, T81A, R83T, E84R
Summary of the method: as §1

[32] = molecular target: T24, ZFP SBS#1269 (synthetic)
T24 chain: T1 chain with R20Q, D22S, E23D, Q50R, G52D, H53A, R56T, T81A
Summary of the method: as §1

[33] = molecular target: T25, ZFP SBS#1268 (synthetic)
T25 chain: T1 chain with R20Q, D22S, E23D, Q50R, S51A, G52D, H53A, T55M, R56V, T81A
Summary of the method: as §1

[34] = molecular target: T26, ZFP SBS#1241 (synthetic)
T26 chain: T7 chain with T20Q, T21S, S22H, N23D, A25T, R26K, N53A, Q55A, H81N, S83A
Summary of the method: as §1

[35] = molecular target: ZFP SBS#1279 (synthetic)
Summary of the method: as §1

ZFP SBS#1274 (synthetic), sequence (chain, as listed by the source): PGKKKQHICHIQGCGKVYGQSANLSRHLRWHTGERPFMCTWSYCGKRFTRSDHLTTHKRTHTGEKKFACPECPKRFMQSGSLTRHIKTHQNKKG
ZFP SBS#998 (synthetic), sequence (chain, as listed by the source): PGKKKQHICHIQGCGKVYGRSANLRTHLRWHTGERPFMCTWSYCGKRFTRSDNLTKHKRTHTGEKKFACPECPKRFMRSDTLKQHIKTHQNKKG
ZFP SBS#1236 (synthetic), sequence (chain, as listed by the source): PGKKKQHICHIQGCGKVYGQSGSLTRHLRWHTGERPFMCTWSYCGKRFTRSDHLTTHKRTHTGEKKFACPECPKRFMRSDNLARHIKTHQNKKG
ZFP SBS#490 (synthetic), sequence (chain, as listed by the source): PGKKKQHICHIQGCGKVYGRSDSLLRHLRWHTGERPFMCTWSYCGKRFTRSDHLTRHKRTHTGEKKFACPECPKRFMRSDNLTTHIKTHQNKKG
ZFP SBS#1250 (synthetic), sequence (chain, as listed by the source): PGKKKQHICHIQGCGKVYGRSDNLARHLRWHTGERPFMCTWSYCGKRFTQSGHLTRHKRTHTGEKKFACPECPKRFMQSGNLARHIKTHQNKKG
ZFP SBS#1237 (synthetic), sequence (chain, as listed by the source): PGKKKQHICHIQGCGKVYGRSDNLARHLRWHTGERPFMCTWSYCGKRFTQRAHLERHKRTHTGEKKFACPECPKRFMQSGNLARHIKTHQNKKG
ZFP SBS#1275 (synthetic), sequence (chain, as listed by the source): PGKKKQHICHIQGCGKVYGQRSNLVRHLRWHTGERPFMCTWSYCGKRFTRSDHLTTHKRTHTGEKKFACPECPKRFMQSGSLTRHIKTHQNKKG
ZFP SBS#1234 (synthetic), sequence (chain, as listed by the source): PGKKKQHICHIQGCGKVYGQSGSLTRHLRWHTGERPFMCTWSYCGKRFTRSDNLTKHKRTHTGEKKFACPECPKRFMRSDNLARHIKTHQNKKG

B1: GCATGGGAA (dsDNA)
DNA 1: GCATGGGAA
DNA 2: TTCCCATGC
[1]
  Kd: 306 pM
[2]
  Kd: 326 pM

B2: CCGGGAGCG (dsDNA)
DNA 1: CCGGGAGCG
DNA 2: CGCTCCCGG
[3]
  Kd: 260 pM
[4]
  Kd: 228 pM

B3: CAGGGTGGC (dsDNA)
DNA 1: CAGGGTGGC
DNA 2: GCCACCCTG
[5]
  Kd: 6100 pM
[6]
  Kd: 4100 pM

B4: TAGGGGGTGG (dsDNA)
DNA 1: TAGGGGGTGG
DNA 2: CCACCCCCTA
[7]
  Kd: 1500 pM

B5: GAGTGTGTG (dsDNA)
DNA 1: GAGTGTGTG
DNA 2: CACACACTC
[8]
  Kd: 1500 pM
[9]
  Kd: 1800 pM

B6: GGGGAGGAT (dsDNA)
DNA 1: GGGGAGGAT
DNA 2: ATCCTCCCC
[10]
  Kd: 1000 pM
[11]
  Kd: 2000 pM
[12]
  Kd: 3000 pM

B7: GTGGTTGCG (dsDNA)
DNA 1: GTGGTTGCG
DNA 2: CGCAACCAC
[13]
  Kd: 117 pM
[14]
  Kd: 51 pM

B8: GAGGTGGCC (dsDNA)
DNA 1: GAGGTGGCC
DNA 2: GGCCACCTC
[15]
  Kd: 500 pM

B9: GAAGAGGGG (dsDNA)
DNA 1: GAAGAGGGG
DNA 2: CCCCTCTTC
[16]
  Kd: 421 pM

B10: ACGTAGTAG (dsDNA)
DNA 1: ACGTAGTAG
DNA 2: CTACTACGT
[17]
  Kd: 690 pM
[18]
  Kd: 230 pM
[19]
  Kd: 690 pM
[20]
  Kd: 1400 pM
[21]
  Kd: 118 pM

B11: AAGTTGGTT (dsDNA)
DNA 1: AAGTTGGTT
DNA 2: AACCAACTT
[22]
  Kd: 210 pM
[23]
  Kd: 77 pM

B12: GAAGGAGAG (dsDNA)
DNA 1: GAAGGAGAG
DNA 2: CTCTCCTTC
[24]
  Kd: 65 pM
[25]
  Kd: 310 pM

B13: TCGGTCGCC (dsDNA)
DNA 1: TCGGTCGCC
DNA 2: GGCGACCGA
[26]
  Kd: 74100 pM

B14: GTGGCACTG (dsDNA)
DNA 1: GTGGCACTG
DNA 2: CAGTGCCAC
[27]
  Kd: 915 pM

B15: GAGTAGGCA (dsDNA)
DNA 1: GAGTAGGCA
DNA 2: TGCCTACTC
[28]
  Kd: 101 pM
[29]
  Kd: 19 pM
[30]
  Kd: 65 pM

B16: GTGGTAGGA (dsDNA)
DNA 1: GTGGTAGGA
DNA 2: TCCTACCAC
[31]
  Kd: 152 pM

B17: CTGTTGGCT (dsDNA)
DNA 1: CTGTTGGCT
DNA 2: AGCCAACAG
[32]
  Kd: 12300 pM
[33]
  Kd: 1520 pM

B18: GAGGTGTCA (dsDNA)
DNA 1: GAGGTGTCA
DNA 2: TGACACCTC
[34]
  Kd: 27 pM
[35]
  Kd: 25 pM

— US20030068675, “Position dependent recognition of GNN nucleotide triplets by zinc fingers” (published 2003)
